Here are results for one molecule from US20190177431A1 (FUDAN UNIVERSITY, published 2019).

Assay [1] deals with T1, murine TF (B16-F10 cells) (murine, UniProt P20352 29-294).
T1 construct: whole, on cells
T1 sequence (looked up): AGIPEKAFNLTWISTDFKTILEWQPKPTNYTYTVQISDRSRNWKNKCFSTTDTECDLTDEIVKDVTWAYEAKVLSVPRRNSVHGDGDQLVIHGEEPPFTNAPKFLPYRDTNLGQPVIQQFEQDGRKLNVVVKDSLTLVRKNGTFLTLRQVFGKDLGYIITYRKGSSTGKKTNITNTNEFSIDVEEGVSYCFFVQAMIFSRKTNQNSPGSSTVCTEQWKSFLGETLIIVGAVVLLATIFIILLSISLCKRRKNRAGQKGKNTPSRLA
Briefly: flow cytometry on B16-F10 cells. On the technique in general: In flow cytometry, cells or beads pass a laser one at a time.
Text: After preliminary screening, about 30 hybridoma cells were selected for secondary limiting dilution cloning, and then 6 antibodies were selected for large-scale expression and purification.

The target of assay [2] is T2, human TF on the cell surface of tumor cells (human, UniProt P13726 33-295).
T2 construct: whole, on cells; Endogenous TF on TF-positive human tumor cell lines; also called cell surface TF
Briefly: flow cytometry on MDA-MB-231 cells.

In assay [3] the target is T2, human TF on the cell surface of tumor …. Briefly: cell-based or functional assay.
Assay [4] has the same target. Briefly: flow cytometry on U87MG cells. The protocol:
(§1) The cells were washed with PBS twice to remove the unbound primary antibody, and the target cells were incubated with 200 μL PE-labeled secondary antibody (2 μg/mL) at 4° C. for 30 min. The cells were washed with PBS twice to remove the unbound secondary antibody, and finally the cells were re-suspended in 400 μL PBS.

Assay [5] shares this target. Briefly: flow cytometry on BxPC-3 cells. As to the method:
as §1

Assay [6] deals with T3, extracellular domain of human TF protein (human, UniProt P13726 34-251).
T3 construct: range 34-251; Limits 34-251 are stated for the immunogen; also called the extracellular domain protein of TF; TF antigen
As to the kind of experiment: ELISA, coated TF extracellular domain. The protocol:
The antigen (the extracellular domain protein of TF) was diluted to 0.5 μg/mL with a coating solution, and was used to coat an ELISA plate overnight, at 100 μL/well and 4° C. The excessive antigen was removed by washing. The plate was blocked with 2% BSA at room temperature for 2 h, and then each of the 3-fold serial diluted monoclonal antibodies was added at 100 μL/well, and was incubated for 2 h at room temperature. The unbound antibodies were removed by washing, and an appropriate concentration of horseradish peroxidase-labeled anti-mouse secondary antibody was added at 100 μL/well, and incubated for 1 h at room temperature. The unbound secondary antibody was removed by washing, TMB chromogenic solution was added, and the color was developed to an appropriate color depth. 2M H₂SO₄ was added at 50 μL/well, to stop the chromogenic reaction, the absorbance at 450 nm was then determined, and the data was analyzed.
On the technique in general: ELISA stands for enzyme-linked immunosorbent assay.

B1: TF-mAb-SC1 (antibody, V domains shown)
VH: QVQLQQPGAELVRPGASVKLSCKASGYSFISYWMNWVKQRPGQGLEWIGMIYPADSETRLNQKFKDKATLTVDKSSSTAYMQLSSPTSEDSAVYYCAREDYGSSDYWGQGTTLTVSS
VL: EILLTQSPAIIAASPGEKVTITCSASSSVSYMNWYLQKPGSSPKIWIYGISNLASGVPARFSGSGSGTSFSFTINSMETEDVATYYCQQKSSFPWTFGGGTKLEIK
On to B1, for which the binding result in assay [1] is “no binding (tested: 10 µg/mL)”. The EC50 (in general, the concentration that produces a half-maximal response) in assay [2] was 2.5 nM; in assay [4], 1.6 nM; in assay [5] it was 2.6 nM; in assay [6] it was roughly 0.019 nM. In assay [3], the “IC50 of inhibiting FXa production (BxPC-3 cells)” value came to 9 nM. Moreover, the “IC50 of inhibiting FXa production (MDA-MB-231 cells)” value in assay [3] worked out at 6.4 nM.
